Assay results taken from patent publication US20040146512A1 (RINAT NEUROSCIENCE, published 2004).

T1: Aβ1-16 peptide
T1 construct: Soluble fragment from American Peptide Company
T1 peptide: DAEFRHDSGYEVHHQK

B1: monoclonal antibody 2286 (produced by hybridoma 8A1.2A1) (antibody, V domains shown)
VH: EVKLLESGGGLVQPGGSLKLSCAASGFDFSRYWMNWVRQAPGKGLEWIGEINPDSSTINYTPSLKDKFIISRDNAKNTLYLQMSKVRSEDTALYYCARQMGYWGQGTTLTVSS
VL: DIQMTQTTSSLSASLGDRVTISCSASQGISNYLNWFQQKPDGTVKLLIYYTSSLHSGVPSRFSGSGSGTDYSLTISNLEPEDIATYYCQQYRKLPYTFGGGTKLEIKR
B2: Mouse 2286 Fab (Fab, V domains shown)
VH: B1 VH
VL: B1 VL
B3: monoclonal antibody 2324 (produced by hybridoma 10B10.2E6) (antibody, V domains shown)
VH: VTLKESGPGILKPSQTLSLTCSFSGFSLSTSGMGVGWIRQSSGKGLEWLAHIWWDDDKYYNPSLKSQLTISKDTSRNQVFLKITSVDTADTATYYCARRGVRHRDYFDYWGQGTTLTVSS
VL: DVLMTQTPLSLPVSLGDQASISCRSSQSIVHSNGNTYLEWYLQKPGQSPKLLIYKVSNRFSGVPDRFSGSGSGTDFTLKISRVEAEDLGVYYCFQGSRVPLTFGAGTKLELKR

What was measured:
Aβ1-40 peptide = biological target: T2, Aβ1-40 peptide; test: Affinity Kd of Table 2; method and format not stated in Example 1
T2 construct: Synthetic peptide, also the immunogen; also called Aβ peptide; β-amyloid peptide 1-40

Aβ1-28 peptide [1] = biological target: T3, Aβ1-28 peptide; test: SPR (Biacore 3000) competition: antibody over biotin-Aβ1-40 on a streptavidin chip, with soluble peptide; % of maximal binding
T3 construct: Soluble fragment from American Peptide Company

Aβ1-38 peptide [2] = biological target: T4, Aβ1-38 peptide; test: as above
T4 construct: Soluble fragment from American Peptide Company

Aβ1-16 peptide [3] = biological target: T1, Aβ1-16 peptide; test: as above
[4] = biological target: T5, Aβ1-40 variant V39A expressed as GST fusion protein (Homo sapiens (Human), UniProt P05067 672-711, Expressed as a GST fusion protein; the GST part is left out.); test: ELISA: GST fusion protein immobilized 0.25 µg per well, antibody at 2 nM, biotin goat anti-mouse (H+L) + streptavidin-HRP, OD450
T5 construct: also called V39A (1-40); not shown: GST fusion partner and its linker
T5 sequence (P05067 672-711 V710A limits assumed): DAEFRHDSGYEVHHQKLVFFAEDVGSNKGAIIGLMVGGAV

[5] = biological target: T6, Aβ1-40 variant V36A expressed as GST fusion protein (Homo sapiens (Human), UniProt P05067 672-711, Expressed as a GST fusion protein; the GST part is left out.); test: as above
T6 construct: also called V36A (1-40); not shown: GST fusion partner and its linker
T6 sequence (P05067 672-711 V707A limits assumed): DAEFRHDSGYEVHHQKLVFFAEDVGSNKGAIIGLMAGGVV

[6] = biological target: T7, Aβ1-40 variant V40A expressed as GST fusion protein (Homo sapiens (Human), UniProt P05067 672-710, Expressed as a GST fusion protein; the GST part is left out.); test: as above
T7 construct: also called V40A (1-40); not shown: GST fusion partner and its linker
T7 sequence (P05067 672-711 V711A limits assumed): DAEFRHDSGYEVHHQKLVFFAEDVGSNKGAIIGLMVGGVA

Aβ1-43 peptide [7] = biological target: T8, Aβ1-43 peptide; test: ELISA: peptide immobilized on plate + Ab + GAMIgG(Fc)HRP, absorbance 490 nm; antibody concentration not given
T8 construct: also called 1-43 (WT); β-amyloid peptide 1-43

Aβ1-42 peptide [8] = biological target: T9, Aβ1-42 peptide; test: as above
T9 construct: also called 1-42 (WT); β-amyloid peptide 1-42

[9] = biological target: T10, Aβ1-41 expressed as GST fusion protein (Homo sapiens (Human), UniProt P05067 672-712); test: ELISA: GST fusion protein immobilized 0.25 µg per well, biotin goat anti-mouse (H+L) + streptavidin-HRP, OD450
T10 construct: also called 1-41 (WT); not shown: Glutathione-S-Transferase (GST) fusion partner, Amersham Pharmacia Biotech system
T10 sequence (P05067 672-712): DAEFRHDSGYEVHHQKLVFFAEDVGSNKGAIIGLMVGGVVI

[10] = biological target: T11, Aβ1-40 polypeptide coupled to biotin, immobilized on a streptavidin-coated chip (coupled to biotin (position not given)); test: SPR (BIAcore 3000), Fab over biotin-Aβ1-40 on SA chip, 'Steady-State' method
T11 construct: From Global Peptide Services; Used in the SPR assays; also called biotinylated Aβ peptide 1-40; immobilized Aβ1-40

[11] = biological target: T10, Aβ1-41 expressed as GST fusion protein; test: ELISA: GST fusion protein immobilized 0.25 µg per well, antibody at 2 nM, biotin goat anti-mouse (H+L) + streptavidin-HRP, OD450
[12] = biological target: T12, Wild-type Aβ1-40 expressed as GST fusion protein (Homo sapiens (Human), UniProt P05067 672-711); test: as above
T12 construct: Expressed in E. coli; also called Aβ1-40 (WT) GST fusion; WT Aβ1-40; not shown: Glutathione-S-Transferase (GST) fusion partner, Amersham Pharmacia Biotech system

Aβ1-43 peptide [13] = biological target: T8, Aβ1-43 peptide; test: ELISA: peptide immobilized on plate + Ab + GAMIgG(Fc)HRP, absorbance 490 nm
Aβ1-42 peptide [14] = biological target: T9, Aβ1-42 peptide; test: as above
[15] = biological target: T13, beta amyloid precursor protein (βAPP) (Homo sapiens, UniProt P05067 18-770); test: ELISA: β-APP (gD) immobilized on plate + Ab + GAMIgG(Fc)HRP, absorbance 490 nm; antibody concentration not given
T13 construct: also called amyloid beta (A4) precursor protein
T13 sequence (P05067 other isoform, or with tags, fused parts or gaps limits assumed): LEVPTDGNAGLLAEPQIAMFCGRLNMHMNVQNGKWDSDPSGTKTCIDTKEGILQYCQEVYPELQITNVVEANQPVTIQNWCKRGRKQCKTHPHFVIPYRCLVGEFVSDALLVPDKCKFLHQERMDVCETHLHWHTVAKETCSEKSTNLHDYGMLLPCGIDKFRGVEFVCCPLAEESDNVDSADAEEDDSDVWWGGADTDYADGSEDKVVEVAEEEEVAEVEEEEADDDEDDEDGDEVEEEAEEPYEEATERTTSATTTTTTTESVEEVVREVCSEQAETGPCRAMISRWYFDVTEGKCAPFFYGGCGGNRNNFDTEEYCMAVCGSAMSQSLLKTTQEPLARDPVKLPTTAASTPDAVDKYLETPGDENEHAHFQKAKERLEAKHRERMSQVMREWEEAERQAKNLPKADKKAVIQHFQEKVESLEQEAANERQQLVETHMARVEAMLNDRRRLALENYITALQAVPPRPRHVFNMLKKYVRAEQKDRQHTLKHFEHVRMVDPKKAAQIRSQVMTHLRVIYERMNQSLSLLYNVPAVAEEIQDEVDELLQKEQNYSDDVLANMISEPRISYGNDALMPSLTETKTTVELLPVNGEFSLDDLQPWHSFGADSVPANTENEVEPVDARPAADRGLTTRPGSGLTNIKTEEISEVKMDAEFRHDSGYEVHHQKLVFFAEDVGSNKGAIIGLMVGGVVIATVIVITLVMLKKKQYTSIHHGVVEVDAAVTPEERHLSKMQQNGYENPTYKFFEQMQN

Aβ1-28 peptide [16] = biological target: T3, Aβ1-28 peptide; test: SPR (Biacore 3000) competition: antibody 100 nM over biotin-Aβ1-40 on a streptavidin chip, with soluble peptide at 1000 nM; % of maximal binding
Aβ1-38 peptide [17] = biological target: T4, Aβ1-38 peptide; test: as above
Aβ1-16 peptide [18] = biological target: T1, Aβ1-16 peptide; test: as above

Binder	Kd (Aβ1-40 peptide) [nM]	binding result (Aβ1-28 peptide [1])	binding result (Aβ1-38 peptide [2])	binding result (Aβ1-16 peptide [3])	binding result [4]	binding result [5]	binding result [6]	binding result (Aβ1-43 peptide [7])	binding result (Aβ1-42 peptide [8])	binding result [9]	Kd [10] [nM]	binding result [11]	binding result [12]	binding result (Aβ1-43 peptide [13])	binding result (Aβ1-42 peptide [14])	binding result [15]	binding result (Aβ1-28 peptide [16])	binding result (Aβ1-38 peptide [17])	binding result (Aβ1-16 peptide [18])
B1	2.7	no binding	no binding	no binding	binds	binds	binds	no binding	no binding	no binding (tested: 2 nM)									
B2											76								
B3	0.9				binds	binds	binds					binds	binds	binds	binds	no binding	binds	binds	binds
